US20250230251A1 (Bristol-Myers Squibb, published 2025)

Legend:
[1] = target: T1, huIL-18Rβ-HisAvi (human, UniProt O95256 20-356, biotinylated in the Octet blocking assay); test: SPR T200, mAb on anti-hFc, 37C, pH 6
T1 construct: Soluble analyte in all SPR runs; captured on streptavidin sensors in the Octet assay; also called human IL-18Rβ; human IL-18Rβ-Avi-His
T1 sequence: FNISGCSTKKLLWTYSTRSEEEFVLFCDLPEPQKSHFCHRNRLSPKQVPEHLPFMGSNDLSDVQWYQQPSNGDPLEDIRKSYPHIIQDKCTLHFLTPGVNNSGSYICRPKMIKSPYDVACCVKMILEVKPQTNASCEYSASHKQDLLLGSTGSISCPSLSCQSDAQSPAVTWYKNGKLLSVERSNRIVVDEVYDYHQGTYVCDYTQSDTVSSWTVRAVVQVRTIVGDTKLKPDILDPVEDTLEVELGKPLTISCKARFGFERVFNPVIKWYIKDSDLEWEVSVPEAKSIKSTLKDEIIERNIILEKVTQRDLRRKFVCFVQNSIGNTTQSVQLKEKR

[2] = target: T2, cyIL-18Rβ-HisAvi (cynomolgus monkey); test: SPR screen, 1:1 fit
T2 construct: Soluble analyte in SPR; also called cyno IL-18Rβ; cynomolgus monkey IL-18Rβ
T2 chain: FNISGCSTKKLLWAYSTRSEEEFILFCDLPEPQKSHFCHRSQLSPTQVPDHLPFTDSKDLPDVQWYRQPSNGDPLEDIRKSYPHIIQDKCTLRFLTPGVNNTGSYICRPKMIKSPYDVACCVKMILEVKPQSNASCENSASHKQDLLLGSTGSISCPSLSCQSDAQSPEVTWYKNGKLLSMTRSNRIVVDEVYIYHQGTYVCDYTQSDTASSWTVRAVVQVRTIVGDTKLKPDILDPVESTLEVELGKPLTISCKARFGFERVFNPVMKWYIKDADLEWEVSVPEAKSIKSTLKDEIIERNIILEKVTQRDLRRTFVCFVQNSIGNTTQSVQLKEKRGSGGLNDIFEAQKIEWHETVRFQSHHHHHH

[3] = target: T1, huIL-18Rβ-HisAvi; test: SPR screen, 1:1 fit
[4] = target: T1, huIL-18Rβ-HisAvi; test: SPR T200, pH 7.4; sample stored at pH 6, 4 w 4C
[5] = target: T1, huIL-18Rβ-HisAvi; test: SPR T200, mAb on anti-hFc, 37C, pH 5
[6] = target: T3, human IL-18Rβ on cells (human, UniProt O95256 20-599); test: cell-based or functional assay
T3 sequence: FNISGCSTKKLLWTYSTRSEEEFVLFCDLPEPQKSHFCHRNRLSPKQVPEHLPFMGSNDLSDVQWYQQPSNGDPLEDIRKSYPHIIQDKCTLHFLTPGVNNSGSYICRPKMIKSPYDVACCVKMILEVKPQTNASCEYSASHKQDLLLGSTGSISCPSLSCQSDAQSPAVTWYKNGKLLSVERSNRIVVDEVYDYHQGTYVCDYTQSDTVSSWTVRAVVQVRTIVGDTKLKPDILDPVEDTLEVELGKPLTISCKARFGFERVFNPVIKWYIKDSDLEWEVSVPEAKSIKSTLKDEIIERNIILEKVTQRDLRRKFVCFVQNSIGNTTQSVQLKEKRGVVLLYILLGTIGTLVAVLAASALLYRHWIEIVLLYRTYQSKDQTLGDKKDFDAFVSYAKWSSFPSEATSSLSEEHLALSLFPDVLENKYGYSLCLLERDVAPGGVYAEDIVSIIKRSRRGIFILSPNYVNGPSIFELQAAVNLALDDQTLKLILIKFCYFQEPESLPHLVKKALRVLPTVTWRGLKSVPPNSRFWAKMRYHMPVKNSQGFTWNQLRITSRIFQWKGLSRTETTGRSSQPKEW

[7] = target: T1, huIL-18Rβ-HisAvi; test: SPR T200, mAb on anti-hFc, 37C, pH 7.4
[8] = target: T3, human IL-18Rβ on cells; test: cell-based or functional assay; remark: listed apart in the source
[9] = target: T2, cyIL-18Rβ-HisAvi; test: SPR T200, mAb on anti-hFc, 37C, pH 7.4
[10] = target: T1, huIL-18Rβ-HisAvi; test: SPR T200, mAb on anti-hFc, 37C, pH 7.4; remark: listed apart in the source
[11] = target: T1, huIL-18Rβ-HisAvi; test: SPR T200, pH 7.4; sample stored at pH 8, 4 w 4C
[12] = target: T2, cyIL-18Rβ-HisAvi; test: SPR T200, mAb on anti-hFc, 37C, pH 6
[13] = target: T1, huIL-18Rβ-HisAvi; test: SPR T200, mAb on anti-hFc, 37C, pH 6; remark: listed apart in the source
[14] = target: the molecule itself; test: clone self-interaction BLI, antibody on AHQ sensor against 1 µM of the same antibody
[15] = target: T1, huIL-18Rβ-HisAvi; test: SPR T200, pH 7.4; sample stored at pH 6, 4 w 40C

B1: P20 (antibody, human IgG1, kappa)
heavy: QVQLQQSGPGLVKPSETLSLTCTVSGGSINNYYWSWIRQPPGKGLEWIGYIFYSGTTNYNPSLKSRVTISVDTSKNQFSLKLSSVTAADTAVYYCARDVGIAARNSYYYVMDVWGQGTTVTVSSASTKGPSVFPLAPSSKSTSGGTAALGCLVKDYFPEPVTVSWNSGALTSGVHTFPAVLQSSGLYSLSSVVTVPSSSLGTQTYICNVNHKPSNTKVDKRVEPKSCDKTHTCPPCPAPEAEGAPSVFLFPPKPKDTLMISRTPEVTCVVVDVSHEDPEVKFNWYVDGVEVHNAKTKPREEQYNSTYRVVSVLTVLHQDWLNGKEYKCKVSNKALPAPIEKTISKAKGQPREPQVYTLPPSREEMTKNQVSLTCLVKGFYPSDIAVEWESNGQPENNYKTTPPVLDSDGSFFLYSKLTVDKSRWQQGNVFSCSVMHEALHNHYTQKSLSLSPG
light: AIQLTQSPSSLSASVGDRVTITCRASQGISSALAWYQQKPGKAPKFLIYDASSLESGVPSRFSGSGSGTDFTLTISSLQPEDFATYYCQQFNSYPITFGQGTRLEIKRTVAAPSVFIFPPSDEQLKSGTASVVCLLNNFYPREAKVQWKVDNALQSGNSQESVTEQDSKDSTYSLSSTLTLSKADYEKHKVYACEVTHQGLSSPVTKSFNRGEC
notes: Human IgG
- apparent Kd (pooled screen) [1]: 0.43 nM
- apparent koff (pooled screen) [1]: 0.00016 s⁻¹
- apparent kon (pooled screen) [1]: 380000 M⁻¹ s⁻¹
- Kd [2]: 3.8 nM
- apparent Kd (pooled screen) [3]: 1.4 nM
- apparent Kd (pooled screen) [4]: 1.5 nM
- apparent koff (pooled screen) [4]: 0.00036 s⁻¹
- apparent kon (pooled screen) [4]: 240000 M⁻¹ s⁻¹
- apparent Kd (pooled screen) [5]: 2 nM
- apparent koff (pooled screen) [5]: 0.00021 s⁻¹
- apparent kon (pooled screen) [5]: 100000 M⁻¹ s⁻¹
- IC50, IL-18-induced IFNγ release, KG-1 cells [6]: 0.2 nM
- apparent Kd (pooled screen) [7]: 1.8 nM
- apparent koff (pooled screen) [7]: 0.00032 s⁻¹
- apparent kon (pooled screen) [7]: 180000 M⁻¹ s⁻¹
- IC50, LPS+IL-12 dependent IFNg production, human whole blood [8]: 1.66 nM
- Kd [9]: 1.4 nM
- koff [9]: 0.00024 s⁻¹
- kon [9]: 180000 M⁻¹ s⁻¹
- apparent Kd (pooled screen) [10]: 0.51 nM
- apparent koff (pooled screen) [10]: 0.00017 s⁻¹
- apparent Kd (pooled screen) [11]: 1.5 nM
- apparent koff (pooled screen) [11]: 0.00035 s⁻¹
- apparent kon (pooled screen) [11]: 230000 M⁻¹ s⁻¹
- Kd [12]: 1.6 nM
- koff [12]: 0.00028 s⁻¹
- kon [12]: 180000 M⁻¹ s⁻¹
- apparent Kd (pooled screen) [13]: 0.43 nM
- apparent koff (pooled screen) [13]: 0.00016 s⁻¹
- apparent kon (pooled screen) [13]: 380000 M⁻¹ s⁻¹
- Average CSI-BLI ΔResponse [14]: 0.02 nm
- apparent Kd (pooled screen) [15]: 1.3 nM
- apparent koff (pooled screen) [15]: 0.00039 s⁻¹
- apparent kon (pooled screen) [15]: 300000 M⁻¹ s⁻¹

B2: P20-V1 (antibody, human IgG1, kappa, V domains shown)
VH: QVQLQESGPGLVKPSETLSLTCTVSGGSINNYYWSWIRQPPGKGLEWIGYIFYSGTTNYNPSLKSRVTISVDTSKNQFSLKLSSVTAADTAVYYCARDVGIAARNSYYYVMDVWGQGTTVTVSS
VL: AIQLTQSPSSLSASVGDRVTITCRASQGISSALAWYQQKPGKAPKFLIYEASSLESGVPSRFSGSGSGTDFTLTISSLQPEDFATYYCQQFNSYPITFGQGTRLEIKR
notes: Variant of P20
- Kd [9]: 1.4 nM
- koff [9]: 0.00028 s⁻¹
- kon [9]: 200000 M⁻¹ s⁻¹
- Kd [10]: 0.43 nM
- koff [10]: 0.00015 s⁻¹
- kon [10]: 340000 M⁻¹ s⁻¹
- Kd [12]: 1.7 nM
- koff [12]: 0.00028 s⁻¹
- kon [12]: 160000 M⁻¹ s⁻¹
- Kd [13]: 0.45 nM
- koff [13]: 0.00015 s⁻¹
- kon [13]: 340000 M⁻¹ s⁻¹

B3: P21 (antibody, human IgG1, kappa, V domains shown)
VH: QVQLQQSGPGLVKPSETLSLTCTVSGGSISNYYWTWIRQPPGKGLEWIGYISDSGSTNYNPSLKSRVTISVDTSKNQFSLKLSSVTAADTAVYYCARETIVVRGFYFYVMDVWGQGTTVTVSS
VL: AIQLTQSPSSLSASVGDRVTITCRASQGISSALAWYQQRPGKAPKLLIYDASNWESGVPSRFSGSGSGTDFTLTISSLQPEDFATYYCQQFNSYPWTFGQGTKVEIKR
notes: Human IgG
- Kd [1]: 0.65 nM
- koff [1]: 0.00031 s⁻¹
- kon [1]: 480000 M⁻¹ s⁻¹
- Kd [2]: 18 nM
- Kd [3]: 1.4 nM
- Kd [4]: 1.4 nM
- koff [4]: 0.00038 s⁻¹
- kon [4]: 260000 M⁻¹ s⁻¹
- Kd [5]: 2.5 nM
- koff [5]: 0.0004 s⁻¹
- kon [5]: 160000 M⁻¹ s⁻¹
- IC50, IL-18-induced IFNγ release, KG-1 cells [6]: 0.7 nM
- Kd [7]: 2.3 nM
- koff [7]: 0.0005 s⁻¹
- kon [7]: 220000 M⁻¹ s⁻¹
- IC50, LPS+IL-12 dependent IFNg production, human whole blood [8]: 1.34 nM
- Kd [9]: 19 nM
- koff [9]: 0.0029 s⁻¹
- kon [9]: 150000 M⁻¹ s⁻¹
- Kd [10]: 1.8 nM
- koff [10]: 0.00043 s⁻¹
- kon [10]: 240000 M⁻¹ s⁻¹
- Kd [11]: 1.3 nM
- koff [11]: 0.00034 s⁻¹
- kon [11]: 270000 M⁻¹ s⁻¹
- Kd [12]: 11 nM
- koff [12]: 0.002 s⁻¹
- kon [12]: 180000 M⁻¹ s⁻¹
- Kd [13]: 0.65 nM
- koff [13]: 0.00031 s⁻¹
- kon [13]: 480000 M⁻¹ s⁻¹
- Average CSI-BLI ΔResponse [14]: -0.03 nm
- Kd [15]: 5.6 nM
- koff [15]: 0.0013 s⁻¹
- kon [15]: 230000 M⁻¹ s⁻¹
